Measured values from paper PMC9482650, “Quantitative fragmentomics allow affinity mapping of interactomes” (Nature Communications, 2022).

T1: ARHGEF11, O15085
T1 sequence (O15085 42-136, limits assumed, looked up): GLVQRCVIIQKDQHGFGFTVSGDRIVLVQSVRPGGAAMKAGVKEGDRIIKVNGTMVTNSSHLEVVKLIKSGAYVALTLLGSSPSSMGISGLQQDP

T2: DLG3_2, Q92796
T2 sequence (Q92796 221-321, limits assumed, looked up): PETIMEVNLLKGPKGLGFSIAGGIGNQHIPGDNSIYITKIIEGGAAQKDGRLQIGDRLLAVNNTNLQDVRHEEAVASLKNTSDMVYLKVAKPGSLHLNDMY

T3: FRMPD1, Q5SYB0
T3 sequence (Q5SYB0 52-145, limits assumed, looked up): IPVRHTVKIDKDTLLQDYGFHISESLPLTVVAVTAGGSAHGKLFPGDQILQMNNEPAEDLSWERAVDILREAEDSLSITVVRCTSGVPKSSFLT

T4: LIN7A, O14910
T4 sequence (O14910 103-200, limits assumed, looked up): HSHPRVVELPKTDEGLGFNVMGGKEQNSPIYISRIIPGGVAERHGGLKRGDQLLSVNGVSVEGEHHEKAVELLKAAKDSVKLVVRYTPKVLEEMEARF

T5: MPDZ_12, O75970
T5 sequence (O75970 1857-1958, limits assumed, looked up): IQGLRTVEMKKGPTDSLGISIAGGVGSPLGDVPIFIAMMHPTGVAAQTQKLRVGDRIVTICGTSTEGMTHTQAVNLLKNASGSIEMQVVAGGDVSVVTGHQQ

T6: PCLO, Q9Y6V0
T6 sequence (Q9Y6V0 4491-4600, limits assumed, looked up): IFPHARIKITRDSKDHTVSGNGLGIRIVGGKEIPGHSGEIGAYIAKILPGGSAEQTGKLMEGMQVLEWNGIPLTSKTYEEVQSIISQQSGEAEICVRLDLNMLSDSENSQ

T7: PTPN13_1, Q12923
T7 sequence (Q12923 1088-1188, limits assumed, looked up): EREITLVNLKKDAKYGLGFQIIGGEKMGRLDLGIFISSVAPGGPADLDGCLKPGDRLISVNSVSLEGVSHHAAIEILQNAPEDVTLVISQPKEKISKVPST

T8: SHANK1, Q9Y566
T8 sequence (Q9Y566 658-767, limits assumed, looked up): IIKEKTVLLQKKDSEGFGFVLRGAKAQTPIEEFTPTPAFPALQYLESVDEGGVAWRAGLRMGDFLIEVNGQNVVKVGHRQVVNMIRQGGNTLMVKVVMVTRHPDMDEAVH

T9: TX1BP3, O14907
T9 sequence (O14907 10-122, limits assumed, looked up): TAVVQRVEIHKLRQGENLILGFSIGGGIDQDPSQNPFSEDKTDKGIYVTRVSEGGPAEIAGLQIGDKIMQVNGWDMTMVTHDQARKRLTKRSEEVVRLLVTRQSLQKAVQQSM


Molecular target: T1, ARHGEF11, O15085
Experiment: holdup assay
Parameters: key: below the threshold = too weak to quantify, mostly under pKd 3.1 to 4
Details: plain residues with an end cap or a label only (N-terminal biotin on a linker: ado-ado)

Row | Binder | pKd
1 | YYKRPVQEWV [MMP24, Q9Y5R2] | 4.3
2 | LPHGHSTTRV [NLGN4X, Q8N0W4] | 4.04

Molecular target: DLG1_1, Q12959
Experiment: holdup assay
Parameters: key: below the threshold = too weak to quantify, mostly under pKd 3.1 to 4
Details: plain residues with an end cap or a label only (N-terminal biotin on a linker: ado-ado)

Row | Binder | pKd
3 | YYKRPVQEWV [MMP24, Q9Y5R2] | below the threshold
4 | LPHGHSTTRV [NLGN4X, Q8N0W4] | 3.82

Molecular target: DLG2_3, Q15700
Experiment: holdup assay
Parameters: key: below the threshold = too weak to quantify, mostly under pKd 3.1 to 4
Details: plain residues with an end cap or a label only (N-terminal biotin on a linker: ado-ado)

Row | Binder | pKd
5 | YYKRPVQEWV [MMP24, Q9Y5R2] | 3.7
6 | LPHGHSTTRV [NLGN4X, Q8N0W4] | 4.42

Molecular target: T2, DLG3_2, Q92796
Experiment: holdup assay
Parameters: key: below the threshold = too weak to quantify, mostly under pKd 3.1 to 4
Details: plain residues with an end cap or a label only (N-terminal biotin on a linker: ado-ado)

Row | Binder | pKd
7 | YYKRPVQEWV [MMP24, Q9Y5R2] | 4.23
8 | LPHGHSTTRV [NLGN4X, Q8N0W4] | 3.85

Molecular target: DLG5_1, Q8TDM6
Sequence (Q8TDM6 617-713): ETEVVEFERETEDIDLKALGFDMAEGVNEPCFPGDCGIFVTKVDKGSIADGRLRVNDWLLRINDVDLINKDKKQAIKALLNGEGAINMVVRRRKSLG
Experiment: holdup assay
Parameters: key: below the threshold = too weak to quantify, mostly under pKd 3.1 to 4
Details: plain residues with an end cap or a label only (N-terminal biotin on a linker: ado-ado)

Row | Binder | pKd
9 | YYKRPVQEWV [MMP24, Q9Y5R2] | below the threshold
10 | LPHGHSTTRV [NLGN4X, Q8N0W4] | below the threshold

Molecular target: T3, FRMPD1, Q5SYB0
Experiment: holdup assay
Parameters: key: below the threshold = too weak to quantify, mostly under pKd 3.1 to 4
Details: plain residues with an end cap or a label only (N-terminal biotin on a linker: ado-ado)

Row | Binder | pKd
11 | YYKRPVQEWV [MMP24, Q9Y5R2] | below the threshold
12 | LPHGHSTTRV [NLGN4X, Q8N0W4] | below the threshold

Molecular target: GIPC2, Q8TF65
Sequence (Q8TF65 112-203): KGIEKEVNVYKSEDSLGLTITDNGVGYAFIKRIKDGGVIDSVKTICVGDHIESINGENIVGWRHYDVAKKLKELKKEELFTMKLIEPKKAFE
Experiment: holdup assay
Parameters: key: below the threshold = too weak to quantify, mostly under pKd 3.1 to 4
Details: plain residues with an end cap or a label only (N-terminal biotin on a linker: ado-ado)

Row | Binder | pKd
13 | YYKRPVQEWV [MMP24, Q9Y5R2] | below the threshold
14 | LPHGHSTTRV [NLGN4X, Q8N0W4] | below the threshold

Molecular target: GORASP2, Q9H8Y8
Experiment: holdup assay
Parameters: key: below the threshold = too weak to quantify, mostly under pKd 3.1 to 4
Details: plain residues with an end cap or a label only (N-terminal biotin on a linker: ado-ado)

Row | Binder | pKd
15 | YYKRPVQEWV [MMP24, Q9Y5R2] | 5.44
16 | LPHGHSTTRV [NLGN4X, Q8N0W4] | 3.99

Molecular target: GRASP, Q7Z6J2
Sequence (Q7Z6J2 96-193): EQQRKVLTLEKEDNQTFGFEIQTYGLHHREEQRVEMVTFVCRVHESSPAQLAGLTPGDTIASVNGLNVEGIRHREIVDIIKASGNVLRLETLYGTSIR
Experiment: holdup assay
Parameters: key: below the threshold = too weak to quantify, mostly under pKd 3.1 to 4
Details: plain residues with an end cap or a label only (N-terminal biotin on a linker: ado-ado)

Row | Binder | pKd
17 | YYKRPVQEWV [MMP24, Q9Y5R2] | 3.88
18 | LPHGHSTTRV [NLGN4X, Q8N0W4] | 4.29

Molecular target: GRID2IP_1, A4D2P6
Sequence (A4D2P6 1-87): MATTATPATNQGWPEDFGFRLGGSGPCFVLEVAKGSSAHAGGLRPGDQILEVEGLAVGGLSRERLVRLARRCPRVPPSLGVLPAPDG
Experiment: holdup assay
Parameters: key: below the threshold = too weak to quantify, mostly under pKd 3.1 to 4
Details: plain residues with an end cap or a label only (N-terminal biotin on a linker: ado-ado)

Row | Binder | pKd
19 | YYKRPVQEWV [MMP24, Q9Y5R2] | below the threshold
20 | LPHGHSTTRV [NLGN4X, Q8N0W4] | below the threshold

Molecular target: Inadl_1, Q8NI35
Sequence (Q8NI35 113-229): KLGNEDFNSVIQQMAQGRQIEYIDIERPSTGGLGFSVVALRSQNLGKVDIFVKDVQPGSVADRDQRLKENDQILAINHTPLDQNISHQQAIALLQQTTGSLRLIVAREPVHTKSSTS
Experiment: holdup assay
Parameters: key: below the threshold = too weak to quantify, mostly under pKd 3.1 to 4
Details: plain residues with an end cap or a label only (N-terminal biotin on a linker: ado-ado)

Row | Binder | pKd
21 | YYKRPVQEWV [MMP24, Q9Y5R2] | below the threshold
22 | LPHGHSTTRV [NLGN4X, Q8N0W4] | below the threshold

Molecular target: Inadl_10, Q8NI35
Sequence (Q8NI35 1673-1763): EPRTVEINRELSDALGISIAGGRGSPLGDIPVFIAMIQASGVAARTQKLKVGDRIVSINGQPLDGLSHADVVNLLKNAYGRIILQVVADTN
Experiment: holdup assay
Parameters: key: below the threshold = too weak to quantify, mostly under pKd 3.1 to 4
Details: plain residues with an end cap or a label only (N-terminal biotin on a linker: ado-ado)

Row | Binder | pKd
23 | YYKRPVQEWV [MMP24, Q9Y5R2] | below the threshold
24 | LPHGHSTTRV [NLGN4X, Q8N0W4] | below the threshold

Molecular target: Inadl_5, Q8NI35
Sequence (Q8NI35 673-780): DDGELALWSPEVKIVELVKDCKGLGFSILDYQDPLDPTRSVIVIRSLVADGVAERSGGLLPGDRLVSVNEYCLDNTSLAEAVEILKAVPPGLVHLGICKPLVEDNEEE
Experiment: holdup assay
Parameters: key: below the threshold = too weak to quantify, mostly under pKd 3.1 to 4
Details: plain residues with an end cap or a label only (N-terminal biotin on a linker: ado-ado)

Row | Binder | pKd
25 | YYKRPVQEWV [MMP24, Q9Y5R2] | 4.47
26 | LPHGHSTTRV [NLGN4X, Q8N0W4] | below the threshold

Molecular target: Inadl_9, Q8NI35
Sequence (Q8NI35 1530-1615): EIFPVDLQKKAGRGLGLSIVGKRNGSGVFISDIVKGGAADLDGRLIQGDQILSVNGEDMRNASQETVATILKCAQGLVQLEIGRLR
Experiment: holdup assay
Parameters: key: below the threshold = too weak to quantify, mostly under pKd 3.1 to 4
Details: plain residues with an end cap or a label only (N-terminal biotin on a linker: ado-ado)

Row | Binder | pKd
27 | YYKRPVQEWV [MMP24, Q9Y5R2] | 4.17
28 | LPHGHSTTRV [NLGN4X, Q8N0W4] | below the threshold

Molecular target: T4, LIN7A, O14910
Experiment: holdup assay
Parameters: key: below the threshold = too weak to quantify, mostly under pKd 3.1 to 4
Details: plain residues with an end cap or a label only (N-terminal biotin on a linker: ado-ado)

Row | Binder | pKd
29 | YYKRPVQEWV [MMP24, Q9Y5R2] | below the threshold
30 | LPHGHSTTRV [NLGN4X, Q8N0W4] | below the threshold

Molecular target: LNX1_1, Q8TBB1
Sequence (Q8TBB1 261-371): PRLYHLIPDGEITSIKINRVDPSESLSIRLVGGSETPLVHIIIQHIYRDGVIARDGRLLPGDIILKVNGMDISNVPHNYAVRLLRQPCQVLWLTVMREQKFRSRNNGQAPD
Experiment: holdup assay
Parameters: key: below the threshold = too weak to quantify, mostly under pKd 3.1 to 4
Details: plain residues with an end cap or a label only (N-terminal biotin on a linker: ado-ado)

Row | Binder | pKd
31 | YYKRPVQEWV [MMP24, Q9Y5R2] | 3.5
32 | LPHGHSTTRV [NLGN4X, Q8N0W4] | 3.79

Molecular target: MAGI2_2, Q86UL8
Sequence (Q86UL8 410-522): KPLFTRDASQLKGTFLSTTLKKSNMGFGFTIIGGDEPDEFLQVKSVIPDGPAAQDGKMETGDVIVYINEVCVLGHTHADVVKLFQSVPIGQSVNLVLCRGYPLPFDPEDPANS
Experiment: holdup assay
Parameters: key: below the threshold = too weak to quantify, mostly under pKd 3.1 to 4
Details: plain residues with an end cap or a label only (N-terminal biotin on a linker: ado-ado)

Row | Binder | pKd
33 | YYKRPVQEWV [MMP24, Q9Y5R2] | below the threshold
34 | LPHGHSTTRV [NLGN4X, Q8N0W4] | 4.95

Molecular target: MAGI2_3, Q86UL8
Sequence (Q86UL8 600-682): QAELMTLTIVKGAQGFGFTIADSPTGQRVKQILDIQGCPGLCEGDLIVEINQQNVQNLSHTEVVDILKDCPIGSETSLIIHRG
Experiment: holdup assay
Parameters: key: below the threshold = too weak to quantify, mostly under pKd 3.1 to 4
Details: plain residues with an end cap or a label only (N-terminal biotin on a linker: ado-ado)

Row | Binder | pKd
35 | YYKRPVQEWV [MMP24, Q9Y5R2] | below the threshold
36 | LPHGHSTTRV [NLGN4X, Q8N0W4] | 4.1

Molecular target: MAGI2_6, Q86UL8
Sequence (Q86UL8 1141-1229): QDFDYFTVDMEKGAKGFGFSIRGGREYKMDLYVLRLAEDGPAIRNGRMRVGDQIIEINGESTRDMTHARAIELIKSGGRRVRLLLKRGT
Experiment: holdup assay
Parameters: key: below the threshold = too weak to quantify, mostly under pKd 3.1 to 4
Details: plain residues with an end cap or a label only (N-terminal biotin on a linker: ado-ado)

Row | Binder | pKd
37 | YYKRPVQEWV [MMP24, Q9Y5R2] | 4.31
38 | LPHGHSTTRV [NLGN4X, Q8N0W4] | below the threshold

Molecular target: MAST2, Q6P0Q8
Sequence (Q6P0Q8 1099-1202): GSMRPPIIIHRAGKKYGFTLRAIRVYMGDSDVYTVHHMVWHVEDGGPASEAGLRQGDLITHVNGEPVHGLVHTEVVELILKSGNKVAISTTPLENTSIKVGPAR
Experiment: holdup assay
Parameters: key: below the threshold = too weak to quantify, mostly under pKd 3.1 to 4
Details: plain residues with an end cap or a label only (N-terminal biotin on a linker: ado-ado)

Row | Binder | pKd
39 | YYKRPVQEWV [MMP24, Q9Y5R2] | below the threshold
40 | LPHGHSTTRV [NLGN4X, Q8N0W4] | 5.12

Molecular target: T5, MPDZ_12, O75970
Experiment: holdup assay
Parameters: key: below the threshold = too weak to quantify, mostly under pKd 3.1 to 4
Details: plain residues with an end cap or a label only (N-terminal biotin on a linker: ado-ado)

Row | Binder | pKd
41 | YYKRPVQEWV [MMP24, Q9Y5R2] | 4.39
42 | LPHGHSTTRV [NLGN4X, Q8N0W4] | below the threshold

Molecular target: NHERF2_2, Q15599
Sequence (Q15599 142-238): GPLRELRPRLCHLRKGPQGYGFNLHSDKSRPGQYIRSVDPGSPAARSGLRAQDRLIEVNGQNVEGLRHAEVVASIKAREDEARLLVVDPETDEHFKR
Experiment: holdup assay
Parameters: key: below the threshold = too weak to quantify, mostly under pKd 3.1 to 4
Details: plain residues with an end cap or a label only (N-terminal biotin on a linker: ado-ado)

Row | Binder | pKd
43 | YYKRPVQEWV [MMP24, Q9Y5R2] | below the threshold
44 | LPHGHSTTRV [NLGN4X, Q8N0W4] | 3.78

Molecular target: NHERF4_4, Q86UT5
Sequence (Q86UT5 464-550): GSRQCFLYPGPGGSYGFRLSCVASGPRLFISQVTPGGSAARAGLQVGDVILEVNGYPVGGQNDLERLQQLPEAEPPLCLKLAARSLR
Experiment: holdup assay
Parameters: key: below the threshold = too weak to quantify, mostly under pKd 3.1 to 4
Details: plain residues with an end cap or a label only (N-terminal biotin on a linker: ado-ado)

Row | Binder | pKd
45 | YYKRPVQEWV [MMP24, Q9Y5R2] | below the threshold
46 | LPHGHSTTRV [NLGN4X, Q8N0W4] | below the threshold

Molecular target: T6, PCLO, Q9Y6V0
Experiment: holdup assay
Parameters: key: below the threshold = too weak to quantify, mostly under pKd 3.1 to 4
Details: plain residues with an end cap or a label only (N-terminal biotin on a linker: ado-ado)

Row | Binder | pKd
47 | YYKRPVQEWV [MMP24, Q9Y5R2] | below the threshold
48 | LPHGHSTTRV [NLGN4X, Q8N0W4] | below the threshold

Molecular target: PDZRN4_1, Q6ZMN7
Sequence (Q6ZMN7 213-318): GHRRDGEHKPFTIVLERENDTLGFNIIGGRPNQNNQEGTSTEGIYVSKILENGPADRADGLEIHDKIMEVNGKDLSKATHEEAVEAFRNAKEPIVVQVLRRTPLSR
Experiment: holdup assay
Parameters: key: below the threshold = too weak to quantify, mostly under pKd 3.1 to 4
Details: plain residues with an end cap or a label only (N-terminal biotin on a linker: ado-ado)

Row | Binder | pKd
49 | YYKRPVQEWV [MMP24, Q9Y5R2] | below the threshold
50 | LPHGHSTTRV [NLGN4X, Q8N0W4] | below the threshold

Molecular target: T7, PTPN13_1, Q12923
Experiment: holdup assay
Parameters: key: below the threshold = too weak to quantify, mostly under pKd 3.1 to 4
Details: plain residues with an end cap or a label only (N-terminal biotin on a linker: ado-ado)

Row | Binder | pKd
51 | YYKRPVQEWV [MMP24, Q9Y5R2] | below the threshold
52 | LPHGHSTTRV [NLGN4X, Q8N0W4] | below the threshold

Molecular target: PTPN3, P26045
Sequence (P26045 505-587): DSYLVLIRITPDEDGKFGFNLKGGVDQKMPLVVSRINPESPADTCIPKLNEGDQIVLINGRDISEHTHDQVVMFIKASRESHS
Experiment: holdup assay
Parameters: key: below the threshold = too weak to quantify, mostly under pKd 3.1 to 4
Details: plain residues with an end cap or a label only (N-terminal biotin on a linker: ado-ado)

Row | Binder | pKd
53 | YYKRPVQEWV [MMP24, Q9Y5R2] | 3.88
54 | LPHGHSTTRV [NLGN4X, Q8N0W4] | 4.36

Molecular target: T8, SHANK1, Q9Y566
Experiment: holdup assay
Parameters: key: below the threshold = too weak to quantify, mostly under pKd 3.1 to 4
Details: plain residues with an end cap or a label only (N-terminal biotin on a linker: ado-ado)

Row | Binder | pKd
55 | YYKRPVQEWV [MMP24, Q9Y5R2] | below the threshold
56 | LPHGHSTTRV [NLGN4X, Q8N0W4] | 4.88

Molecular target: T9, TX1BP3, O14907
Experiment: holdup assay
Parameters: key: below the threshold = too weak to quantify, mostly under pKd 3.1 to 4
Details: plain residues with an end cap or a label only (N-terminal biotin on a linker: ado-ado)

Row | Binder | pKd
57 | YYKRPVQEWV [MMP24, Q9Y5R2] | 3.87
58 | LPHGHSTTRV [NLGN4X, Q8N0W4] | below the threshold
